{"source": "paper PMC3978073", "about": "“Flexibility of the Linker between the Domains of DNA Methyltransferase SsoII Revealed by Small-Angle X-Ray Scattering: Implications for Transcription Regulation in SsoII Restriction–Modification Syste”", "target": "T1, M.SsoII (C5-DNA methyltransferase SsoII) (Shigella sonnei, UniProt P34879 1-379)", "T1 sequence": "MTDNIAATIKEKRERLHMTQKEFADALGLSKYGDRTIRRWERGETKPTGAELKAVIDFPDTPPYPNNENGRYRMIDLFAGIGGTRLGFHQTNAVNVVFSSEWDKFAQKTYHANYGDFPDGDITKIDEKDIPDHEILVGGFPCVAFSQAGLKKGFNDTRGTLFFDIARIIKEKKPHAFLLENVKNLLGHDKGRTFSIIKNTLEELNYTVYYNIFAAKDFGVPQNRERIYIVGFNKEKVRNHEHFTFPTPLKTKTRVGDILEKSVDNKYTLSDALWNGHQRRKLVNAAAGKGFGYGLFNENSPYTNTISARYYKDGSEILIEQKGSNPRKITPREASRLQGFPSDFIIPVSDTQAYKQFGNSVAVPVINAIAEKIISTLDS", "experiment": "EMSA (native PAGE, EtBr and Coomassie stain); AdoHcy; M.SsoII:AdoHcy:DNA 1:2:1; Complex formation: 18 mM Tris-HCl, 136 mM NaCl, 3.5 mM beta-mercaptoethanol, 10% (w/v) glycerol, pH 8.0, with AdoHcy; temperature not stated; 7% native PAGE", "conditions": "protein: recombinant; (HisTrap purified; tag not described); blunt"}
{"binder": "15met (dsDNA) DNA 1: AGAGCCAGGAACCGA DNA 2: TCGGTTCCTGGCTCT", "values": [{"measurement": "binding result", "value": "binds"}]}
